Data published in US8273705B2, “Conversion of apoptotic proteins” (The Burnham Institute, priority 2002, dated 2012).
Residue numbers refer to the chain shown, from its start. Names and notes keep the numbering of the source. “Also recorded” adds a separate entry of the source. Each block holds one molecule with its values, some of them ahead of it.

Key:
[1] = target: T1, Bcl-2 (Homo sapiens, UniProt P10415); assay: Co-IP assay of TR3 mutants with Bcl-2 in HEK293T cells; type: binding; settings: GFP fusions co-transfected with Bcl-2 in HEK293T cells
T1 construct: expressed in transfected cells; host or cells: HEK293T
T1 sequence (P10415 whole entry, the tested form may be a part): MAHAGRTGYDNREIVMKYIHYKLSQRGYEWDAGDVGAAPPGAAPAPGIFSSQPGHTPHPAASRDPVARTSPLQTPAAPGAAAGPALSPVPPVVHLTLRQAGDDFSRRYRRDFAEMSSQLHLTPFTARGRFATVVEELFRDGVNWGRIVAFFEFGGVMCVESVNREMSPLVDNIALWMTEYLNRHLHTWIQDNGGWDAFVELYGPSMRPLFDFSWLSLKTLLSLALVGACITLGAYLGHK
Description: TR3/Bcl-2 interaction assays—Reporter gene assays using NurRE-tk-CAT in CV-1 cells, and GST pull-down assay were described previously (Li, et al. 2000 Science 289, 1159-1164). For the mammalian two-hybrid assays, CV-1 cells were co-transfected with pcDNA-Gal4TAD-TR3 or pcDNA-Gal4TAD-TR3/ΔDBD and pcDNA-Gal4DBD-Bcl-2/ΔTM along with a luciferase reporter gene driven by four copies of the Gal4-binding site. The cells were harvested and reporter gene activity was measured. For Co-IP assays, HEK293T cells were transiently transfected with various expression plasmids using a modified calcium phosphate precipitation method (Wu et al, 1997) in the presence of caspase inhibitors (zVAD-fmk) to prevent degradation of TR3 protein due to apoptosis. Cells were suspended in lysis buffer (50 mM Tris-HCl, PH7.4; 150 mM NaCl; 20 mM EDTA; 1% NP-40; 1 mM PMSF; 50 μg/ml Leupeptin; […]; 0.1 mM Na3VO4; and 1 mM DTT). Cells extracts were cleared by incubation with the Protein A/G plus Agarose beads (Santa Cruz) and then incubated with appropriate antibody and 30 μl of Protein A or G plus Agarose beads overnight at 4° C. Beads were then washed and boiled in Laemmli gel-loading solution before performing SDS-PAGE/immunoblotting using the following polyclonal or monoclonal antibodies: monoclonal mouse anti-GFP (Medical and Biological Laboratories), monoclonal mouse anti-HA (Roche Molecular Biochemicals), monoclonal mouse anti-FLAG (Sigma), monoclonal mouse anti-Myc (Santa Cruz), polyclonal rabbit anti-TR3 (Active Motif), or monoclonal mouse anti-Bcl-2 (Santa Cruz). Immunoreactive products were detected by chemiluminescence with an enhanced chemiluminescence system (ECL) (Amersham).
TR3/ΔDBD, which can constitutively reside on mitochondria, was also analyzed by co-immunoprecipitation (Co-IP) assay for its interaction with Bcl-2. GFP-TR3/ΔDBD was transfected into human embryonic kidney cell line 293T alone or together with a Bcl-2 expression vector. The expressed GFP-TR3/ΔDBD mutant protein as then precipitated by using either anti-Bcl-2 antibody or control IgG and detected by western blotting using anti-GFP antibody. The same membranes were also blotted with anti-Bcl-2 antibody to determine precipitation specificity and efficiency. Input represents 10% of total cell extract used in the precipitation assays.
Several TR3 mutants were analyzed to determine the domain of TR3 which interacts with Bcl-2. The TR3 mutants are schematically represented in FIG. 1. A Co-IP assay was performed, as described above. […] Cell extracts were prepared and incubated with anti-Bcl-2 antibody or control IgG for Co-IP assays. Lysates were immunoprecipitated by using either polyclonal rabbit anti-Bcl-2 antibody or control IgG. Cell lysates and immunoprecipitates were examined by immunoblotting using anti-GFP antibody. The same membranes were also blotted with anti-Bcl-2 antibody (Santa Cruz) to determine IP specificity and efficiency. […] This Co-IP was specific because Bcl-2 co-transfection was necessary. […] Thus, the DC1 region in the TR3 LBD is involved in the Bcl-2 interaction.
To further determine the interaction of DC1 with Bcl-2, a region of hydrophobic amino acids ([…]—SEQ ID NO: 1) was deleted from TR3/ΔDBD, and the resulting mutant (TR3/ΔDBD/Δ471-488) was analyzed for its interaction with Bcl-2. TR3/ΔDBD/[…], with eighteen amino acids from 471 to 488 in the DC1 region deleted from TR3/ΔDBD, TR3/ΔDBD/I483A (with Ile483 replaced with Ala) and TR3/ΔDBD/L487A (with Leu487 replaced with Ala) were analyzed for their interaction with Bcl-2 by in vivo Co-IP assay as described above.

[2] = system: 293T cells; assay: DAPI apoptosis assay in 293T cells; type: cell-based, human; settings: 293T, co-expressed with Bcl-2, 36 h, DAPI
Description: Apoptosis assays—For nuclear morphological change analysis, cells were trypsinized, washed with PBS, fixed with 3.7% paraformaldehyde, and stained with DAPI (4,6-diamidino-2-phenylindole) (50 μg/ml) to visualize the nuclei by UV-microscopy. The percentages of apoptotic cells were determined by counting 300 GFP-positive cells, scoring cells having nuclear fragmentation and/or chromatin condensation.
DAPI staining was used to study the apoptotic effect of TR3/Bcl-2 interaction. 293T cells were transfected with GFP-TR3/ΔDBD alone or together with Bcl-2. After 36 h, nuclei were stained by DAPI and nuclear fragmentation and chromatin condensation were identified. Cells were also stained with anti-Bcl-2 antibody, followed by TRITC-conjugated secondary antibody (Sigma). Bcl-2 and GFP-ΔDBD expression and nuclear morphology were visualized by fluorescence microscopy, and the two images were overlaid. […] But, when Bcl-2 was cotransfected, a significant amount of transfected cells underwent apoptosis. For example, approximately 4% of cells transfected with either TR3/ΔDBD or Bcl-2 were apoptotic, compared to 35% of cell transfected with both. […] Cotransfection of Bcl-2, however, prevented BAX-induced apoptosis in these cells (see FIG. 4). The effect of Bcl-2 on apoptotic potential of TR3/ΔDBD in lung cancer and breast cancer cells was also investigated.
To characterize the pro-apoptotic mechanism of Bcl-2 in the setting of TR3-induced apoptosis, various TR3 mutants and Bcl-2 mutants were co-expressed in HEK293T cells. TR3 mutants were transfected into 293T cells together with or without Bcl-2 expression vector or with Bcl-2 mutants. After 36 h, nuclei were stained by DAPI. Cells displaying nuclear condensation or fragmentation were scored.
The role of various Bcl-2 mutants in mediating apoptosis induction by TR3 was next studied. […] The hydrophobic cleft of Bcl-2 is involved in its anti-apoptotic effect through its interaction with BH3 domain of pro-apoptotic molecules (Reed 1997 Semin Hematol 34:9-19; Reed 1997 Nature 387:773-776). To investigate whether the BH3 domain-binding motif of Bcl-2 is also involved in its apoptotic effect, various Bcl-2 mutants including Y108K Bcl-2, with a mutation in the BH3 domain-binding cleft, L137A, and G145A (all with impaired interaction with bax), were cotransfected together with TR3/ΔDBD. […] Bcl-2 mutations (Y108K, L137A, G145A) that impaired its interaction with Bax, abolished the Bcl-2 inhibitory effect on Bax-induced apoptosis, consistent with previous observations that the hydrophobic cleft of Bcl-2 is essential for its anti-apoptotic effect. […] Thus, an intact BH3 domain-binding motif in Bcl-2 is involved in its pro-apoptotic effect. In contrast to the inhibitory effect of Bcl-2 on Bax-induced apoptosis TR3/ΔDBD-induced apoptosis was augmented by co-expression of Bcl-2 in HEK293T cells.
Mitochondrial targeting of TR3 has been previously identified as being involved in its apoptotic effect. To study whether mitochondrial localization of the TR3/ΔDBD/Bcl-2 complex was involved in their apoptotic effect, TR3/ΔDBD was cotransfected with Bcl-2/ATM, a Bcl-2 lacking its transmembrane domain. […] Thus, mitochondrial localization of TR3/ΔDBD/Bcl-2 complex is involved in this apoptotic effect.

[3] = system: 293T cells; assay: Confocal microscopy of mitochondrial targeting in 293T cells; type: cell-based, human
Description: Subcellular localization assays—Cells were seeded onto cover-slips in 6-well plates overnight, then transiently transfected with GFP-fusion expression plasmids. After 16 hours, cells were washed with PBS and fixed in 4% paraformaldehyde. For mitochondrial staining, cells were then incubated with anti-Hsp60 goat IgG (Santa Cruz, USA), followed by anti-goat IgG conjugated with Cy3 (Sigma). For cyt c staining, cells were incubated with monoclonal anti-cyt c IgG (PharMingen), followed by anti-mouse IgG conjugated with Cy5 (Amersham). Fluorescent images were collected and analyzed using a MRC-1024 MP laser-scanning confocal microscope (Bio-Rad). Subcellular fractionation assays were performed as described (Li, et al. 2000 Science 289:1159-1164). Briefly, cells (1×10^7 cells) suspended in 0.5 ml hypotonic buffer (5 mM Tris-HCl, pH 7.4, 5 mM KCl, 1.5 mM MgCl2, 0.1 mM EGTA, pH 8.0, and 1 mM DTT) were homogenized and cell extracts were centrifuged at 500×g for 5 min. The resulting supernatant was centrifuged at 10,000×g for 30 min at 4° C. to obtain the HM fraction. HM fraction was resuspended in 100 μl lysis buffer (10 mM Tris, pH 7.4, 150 mM NaCl, 1% Triton X-100, 5 mM EDTA, pH 8.0) for immunoblotting analysis.
A. confocal microscopy—First an experiment was performed to determine whether the deletion mutant TR3/ΔDBD targets mitochondria via its interaction with Bcl-2. In confocal microscopy analysis, GFP-TR3/ΔDBD and Bcl-2 were transfected into 293T cells alone or together. […] Bcl-2, TR3/ΔDBD and mitochondria (Hsp60) were visualized using confocal microscopy and the three images were overlaid.

[4] = system: LNCaP cells; assay: Dominant-negative Bcl-2/1-90 in LNCaP cells; type: cell-based
Description: The next approach involved using a fragment of Bcl-2 consisting of the TR3 interaction domain (loop region) to identify whether it could act in a dominant-negative fashion to inhibit TR3 mitochondrial targeting in LNCaP cells. Cells transiently transfected with the GFP-Bcl-2/1-90 mutant comprising of the first 90 N-terminal amino acids were treated with TPA to induce expression of TR3 and mitochondrial targeting of the endogenous TR3. […] Thus, Bcl-2/1-90 inhibits TR3 mitochondrial targeting, probably by competing with endogenous Bcl-2 for binding to TR3.
The effect of inhibiting endogenous Bcl-2 expression on the TR3-dependent apoptosis in MGC80-3 cells was next analyzed. […] However, 3-Cl-AHPC-induced apoptosis was suppressed by more than half (about 60%) in Bcl-2 siRNA-transfected cells. Similar results were obtained in H460 lung cancer cells. […] Thus, Bcl-2 can manifest a pro-apoptotic phenotype in settings where TR3 is expressed and targets to mitochondria.

B2: DC1: C-terminal fragment of TR3 (467-536 aa), 69 amino acids (protein, listed as Homo sapiens)
chain: GLVLHRLQCARGFGDWIDSILAFSRSLHSLLVDVPAFACLSALVLITDRHGLQEPRRVEELQNRIASCLK
- interaction with Bcl-2 (Co-IP) [1]: strongly interact with Bcl-2
- apoptosis [2]: potently induced apoptosis

B3: TR3/ΔDBD/L487A: TR3/ΔDBD with Leu487 replaced with Ala (protein)
chain: MPCIQAQYGTPAPSPGPRDHLASDPLTPEFIKPTMDLASPEAAPAAPTALPSFSTFMDGYTGEFDTFLYQLPGTVQPCSSASSSASSTSSSSATSPASASFKFEDFQVYGCYPGPLSGPVDEALSSSGSDYYGSPCSAPSPSTPSFQPPQLSPWDGSFGHFSPSQTYLVLHRLQCARGFGDWIDSIAAFSRSLHSLLVDVPAFACLSALVLITDRHGLQEPRRVEELQNRIASCLKEHVAAVAGEPQPASCLSRLLGKLPELRTLCTQGLQRIFYLKLEDLVPPPPIIDKIFMDTLPF
modifications: left off: large carriers; small tags and cut ends
notes: TR3/ΔDBD with Leu487 replaced with Ala
- interaction with Bcl-2 (Co-IP) [1]: significantly impaired the interaction; also recorded: largely abolished the interaction
- colocalization with mitochondria [3]: failed to colocalize with mitochondria
- apoptosis [2]: failed to confer the apoptotic potential of Bcl-2

B5: Bcl-2/1-90: Bcl-2 mutant comprising the first 90 N-terminal amino acids (protein, UniProt P10415 1-90, looked up, fragment)
chain: MAHAGRTGYDNREIVMKYIHYKLSQRGYEWDAGDVGAAPPGAAPAPGIFSSQPGHTPHPAASRDPVARTSPLQTPAAPGAAAGPALSPVP
modifications: GFP fusion
notes: Bcl-2 mutant comprising the first 90 N-terminal amino acids
- TR3-dependent apoptosis induced by TPA and 3-Cl-AHPC ([4]; LNCaP cells): suppressed TR3-dependent apoptosis
- mitochondrial targeting of endogenous TR3 ([4]; LNCaP cells treated with TPA): TR3 failed to target mitochondria

Second part, led by results:

- interaction with Bcl-2 (Co-IP) [1]: largely abolished the interaction
B1: TR3/ΔDBD/ΔDC1: TR3/ΔDBD with DC1 deleted (protein)
chain: MPCIQAQYGTPAPSPGPRDHLASDPLTPEFIKPTMDLASPEAAPAAPTALPSFSTFMDGYTGEFDTFLYQLPGTVQPCSSASSSASSTSSSSATSPASASFKFEDFQVYGCYPGPLSGPVDEALSSSGSDYYGSPCSAPSPSTPSFQPPQLSPWDGSFGHFSPSQTYEHVAAVAGEPQPASCLSRLLGKLPELRTLCTQGLQRIFYLKLEDLVPPPPIIDKIFMDTLPF
modifications: left off: large carriers; small tags and cut ends
notes: TR3/ΔDBD with DC1 deleted
- apoptosis [2]: failed to confer the apoptotic potential of Bcl-2
- apoptosis ([2]; listed as TR3/ΔDBD/ADC1): did not result in apoptosis

- interaction with Bcl-2 (Co-IP) [1]: largely abolished the interaction
B4: TR3/ΔDBD/I483A: TR3/ΔDBD with Ile483 replaced with Ala (protein)
chain: B3 chain with I183A, A187L
modifications: left off: large carriers; small tags and cut ends
notes: TR3/ΔDBD with Ile483 replaced with Ala
- apoptosis [2]: failed to confer the apoptotic potential of Bcl-2
